The values below come from article PMC2995471, “Identification of amino acid residues in protein SRP72 required for binding to a kinked 5e motif of the human signal recognition particle RNA”.

What all share (assay): Ni-NTA magnetic bead pull-down; EMSA: 50 mM Tris-HCl pH 7.9, 300 mM KOAc, 5 mM MgCl2, 16% glycerol, 10 min 37 C; bead pull-down: 82.5 ng 5e RNA, 0.056-1.8 uM protein, eluted with 250 mM imidazole (binding buffer not given, as in ref 16)
A general note: Mobility shift assays separate free from complexed probe on a gel.

One data set has as its target T1, 72g (human, UniProt O76094 531-585).
T1 sequence: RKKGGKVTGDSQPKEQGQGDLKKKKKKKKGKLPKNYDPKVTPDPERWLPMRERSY
The settings on record: protein: recombinant; tags: N-terminal His6; hairpin with 11-nt 5e internal motif (K-turn).

For a further data set, the target named is T2, 72h 587-RG-588 to AA (human, UniProt O76094 531-590, R587A;G588A).
T2 sequence: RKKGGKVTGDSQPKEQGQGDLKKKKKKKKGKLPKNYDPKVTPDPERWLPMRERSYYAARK
Particulars: protein: recombinant; tags: His6; hairpin with 11-nt 5e internal motif (K-turn).

A further data set has as its target T3, 72h 583-RS-584 to AA (human, UniProt O76094 531-590, R583A;S584A).
T3 sequence: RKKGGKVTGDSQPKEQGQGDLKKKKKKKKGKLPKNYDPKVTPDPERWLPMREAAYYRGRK
Particulars: protein: recombinant; tags: His6; hairpin with 11-nt 5e internal motif (K-turn).

For another data set, the target named is T4, 72f (human, UniProt O76094 531-587).
T4 sequence: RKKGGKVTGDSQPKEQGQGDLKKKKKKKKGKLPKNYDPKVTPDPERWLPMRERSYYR
Particulars: protein: recombinant; tags: N-terminal His6; hairpin with 11-nt 5e internal motif (K-turn).

For another data set, the target named is T5, 72h 577-WL-578 to AA (human, UniProt O76094 531-590, W577A;L578A).
T5 sequence: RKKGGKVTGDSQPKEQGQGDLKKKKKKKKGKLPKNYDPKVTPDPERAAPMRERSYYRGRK
The settings on record: protein: recombinant; tags: His6; hairpin with 11-nt 5e internal motif (K-turn).

In another data set the target is T6, 72e (human, UniProt O76094 531-617).
T6 sequence: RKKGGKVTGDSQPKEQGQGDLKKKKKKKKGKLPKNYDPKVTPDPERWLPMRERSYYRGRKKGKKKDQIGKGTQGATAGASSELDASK
Particulars: protein: recombinant; tags: N-terminal His6; hairpin with 11-nt 5e internal motif (K-turn).

A further data set has as its target T7, 72h 589-RK-590 to AA (human, UniProt O76094 531-590, R589A;K590A).
T7 sequence: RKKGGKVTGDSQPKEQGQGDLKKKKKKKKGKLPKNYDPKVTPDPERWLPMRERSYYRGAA
The settings on record: protein: recombinant; tags: His6; hairpin with 11-nt 5e internal motif (K-turn).

In the next data set the target is T8, 72k (human, UniProt O76094 545-590).
T8 chain: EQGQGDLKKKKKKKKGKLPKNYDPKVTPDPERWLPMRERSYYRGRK
Particulars: protein: recombinant; tags: His6; hairpin with 11-nt 5e internal motif (K-turn).

The next data set addresses T9, 72j (human, UniProt O76094 541-590).
T9 chain: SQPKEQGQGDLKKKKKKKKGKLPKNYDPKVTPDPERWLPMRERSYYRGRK
Particulars: protein: recombinant; tags: His6; hairpin with 11-nt 5e internal motif (K-turn).

Another data set deals with T10, 72h (human, UniProt O76094 531-590).
T10 sequence: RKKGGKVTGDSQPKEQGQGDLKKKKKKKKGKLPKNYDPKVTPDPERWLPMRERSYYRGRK
The settings on record: protein: recombinant; tags: His6; hairpin with 11-nt 5e internal motif (K-turn).

The next data set concerns the target T11, 72h 585-YY-586 to AA (human, UniProt O76094 531-590, Y585A;Y586A).
T11 sequence: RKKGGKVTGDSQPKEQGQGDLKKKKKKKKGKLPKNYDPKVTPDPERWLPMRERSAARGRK
Particulars: protein: recombinant; tags: His6; hairpin with 11-nt 5e internal motif (K-turn).

A further data set has as its target T12, 72h M580A (human, UniProt O76094 531-590, M580A).
T12 sequence: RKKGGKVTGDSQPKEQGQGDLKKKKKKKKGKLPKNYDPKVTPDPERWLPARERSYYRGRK
The settings on record: protein: recombinant; tags: His6; hairpin with 11-nt 5e internal motif (K-turn).

Another data set concerns the target T13, 72h P579A (human, UniProt O76094 531-590, P579A).
T13 sequence: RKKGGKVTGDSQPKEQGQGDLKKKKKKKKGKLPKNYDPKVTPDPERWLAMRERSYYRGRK
The settings on record: protein: recombinant; tags: His6; hairpin with 11-nt 5e internal motif (K-turn).

For the next data set, the target named is T14, 72h 581-RE-582 to AA (human, UniProt O76094 531-590, R581A;E582A).
T14 sequence: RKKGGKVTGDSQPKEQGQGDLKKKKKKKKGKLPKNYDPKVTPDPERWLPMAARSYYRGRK
The settings on record: protein: recombinant; tags: His6; hairpin with 11-nt 5e internal motif (K-turn).

In a further data set the target is T15, 72h del 555-KK-556 (human, UniProt O76094 531-590, del555-556).
T15 sequence: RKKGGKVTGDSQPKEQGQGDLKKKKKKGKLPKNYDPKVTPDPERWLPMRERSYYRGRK
The settings on record: protein: recombinant; tags: His6; hairpin with 11-nt 5e internal motif (K-turn).

Another data set addresses T16, 72h 579-PM-580 to AA (human, UniProt O76094 531-590, P579A;M580A).
T16 sequence: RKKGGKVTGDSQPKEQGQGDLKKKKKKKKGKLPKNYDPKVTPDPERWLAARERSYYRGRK
Particulars: protein: recombinant; tags: His6; hairpin with 11-nt 5e internal motif (K-turn).

Consider GGUCCGGGUGUCCGCACUAGGGAGCUAGUGGGAUCGCGCCUGGAUC (structured_RNA) [5e SRP RNA], for which the binding result was “no binding” with 72g; “binds” with 72h 587-RG-588 to AA; “no binding” with 72h 583-RS-584 to AA; “binds” with 72f; “no binding” with 72h 577-WL-578 to AA; “binds” with 72e. Besides, the binding result with 72h 589-RK-590 to AA, with 72k, with 72j and in the data set with 72h was “binds” each time. The binding signal with 72h 585-YY-586 to AA is 60 ± 3 % of wild-type binding; with 72h M580A, 100 ± 4 % of wild-type binding; with 72h P579A, 26 ± 1 % of wild-type binding; in the data set with 72h 581-RE-582 to AA, 69 ± 14 % of wild-type binding; in the data set with 72h del 555-KK-556 it was 46 ± 12 % of wild-type binding; in the data set with 72h 579-PM-580 to AA it was 14 ± 9 % of wild-type binding.
